Laboratory results reported in patent publication US7378098.
Where no end group is shown, it is not given here.

Target: T1, CXC chemokine receptor 4 (CXCR4) (UniProt P61073 1-352, limits assumed)
T1 construct: whole, on cells; Both are human cell lines; also called CXCR4 receptor; SDF-1 receptor
Experiment: competition with 4 nM 125I-SDF-1 on CEM cells (FIG. 2C)
Method: The results are expressed as percentages of the maximal specific binding that was determined without competing ligand, and are the mean of three independent experiments.

T1 sequence (P61073 whole entry): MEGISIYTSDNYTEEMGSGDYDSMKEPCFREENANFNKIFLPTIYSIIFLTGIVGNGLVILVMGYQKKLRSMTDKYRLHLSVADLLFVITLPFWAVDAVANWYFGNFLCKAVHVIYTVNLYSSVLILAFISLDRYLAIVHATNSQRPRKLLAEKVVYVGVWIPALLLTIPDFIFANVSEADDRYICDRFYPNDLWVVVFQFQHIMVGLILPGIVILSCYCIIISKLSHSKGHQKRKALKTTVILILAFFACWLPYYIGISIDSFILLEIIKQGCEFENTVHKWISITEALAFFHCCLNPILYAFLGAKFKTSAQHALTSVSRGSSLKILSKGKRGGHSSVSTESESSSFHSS

binding result: binds
B1: SDF-1(1-8)2-lysine bridge dimer (CTCE9904) (peptide)
peptide 1: KPVSLSYRK-NH2
peptide 2: KPVSLSYR
modifications: also: dimer: two KPVSLSYR chains bridged through alpha and epsilon amino groups of one lysinamide, lactam at chain A 9 at chain B 8 to a chain's C-terminus
notes: It is not known whether the bridging lysine is part of either listing entry; also called SDF-1 (1-8)2-lysine dimer
